From article doi:10.1101/2022.07.07.499247 come the findings set out here.

Experiment [1] has as its target recombinant alpha tubulin of Plasmodium falciparum (Plasmodium falciparum). The experiment can be described thus: MST.
Experiment [2] has the same target. The experiment is described as follows: MST. The source holds these as a separate data set.

Read-outs that look alike come from different tables or passages of the source.

B1: recombinant Plasmodium falciparum cold shock protein PfCoSP (PF3D7_0109600) (natural protein)
chain: MLRRKIHIHFNSYKKHFFSQLINKEKHDKITGNVIMFDKRKGYGFIKPNDGGPDIFVHYTDICQSRTFEVTNEEKKKLAWNANMDITQKKEEYNFEYDNNNNNNNNKHNKKKEEIKKEFKYLVPGERVKFSVIYDEKSNSSKAINVDYID
On to B1, for which the Kd in experiment [1] turned out to be 210 nM; in experiment [2] it was 274 nM.

In general, Kd refers to the free concentration of one partner at which half of the binding sites on the other are occupied at equilibrium, for simple one-to-one binding.
